Experimental data reported in the supplement of paper PMC7125110.
± gives the standard error. For some of these results: Variants at the floor of the assay were thinned out.

B1: glmS ribozyme (parent)
chain: AUAAAAGCGCCAGAACUACAGAAAUGUAGUUGACGAGGAGGAGGUUUAUCGAAUUUUCGGCGGAUGCCUCCAAA

Assays:
Settings in all cases: with glucosamine-6-phosphate
glucosamine-6-phosphate [1] = variants of: B1; test: kcat; higher = faster cleavage; RNA array
Outline: (§1)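 Glucosamine-6-phosphate in HEPES/KCl/Mg(OAc)2 buffer, at 40 μM to 10 mM, was flowed over barcoded ribozyme variants transcribed in situ by E. coli RNA polymerase on sequenced MiSeq chips. Tracking was through a hybridised Cy3 probe at 37 °C. kobs, kcat and KM came from exponential decay fits and weighted Michaelis–Menten fits of normalised per-tile medians.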

glucosamine-6-phosphate [2] = variants of: B1; test: self-cleavage kobs at 40 uM GlcN6P; higher = faster cleavage; RNA array
Outline: as §1

glucosamine-6-phosphate [3] = variants of: B1; test: self-cleavage kobs at 640 uM GlcN6P; higher = faster cleavage; RNA array
Outline: as §1

glucosamine-6-phosphate [4] = variants of: B1; test: self-cleavage kobs at 2500 uM GlcN6P; higher = faster cleavage; RNA array
Outline: as §1

glucosamine-6-phosphate [5] = variants of: B1; test: self-cleavage kobs at 10000 uM GlcN6P; higher = faster cleavage; RNA array
Outline: as §1

glucosamine-6-phosphate [6] = variants of: B1; test: KM; higher = weaker cofactor use; RNA array
Outline: as §1

glucosamine-6-phosphate [7] = variants of: B1; test: self-cleavage kobs at 160 uM GlcN6P; higher = faster cleavage; RNA array
Outline: as §1

| Variant | kcat (glucosamine-6-phosphate [1]) | self-cleavage kobs at 40 uM GlcN6P (glucosamine-6-phosphate [2]) | self-cleavage kobs at 640 uM GlcN6P (glucosamine-6-phosphate [3]) | self-cleavage kobs at 2500 uM GlcN6P (glucosamine-6-phosphate [4]) | self-cleavage kobs at 10000 uM GlcN6P (glucosamine-6-phosphate [5]) | KM (glucosamine-6-phosphate [6]) | self-cleavage kobs at 160 uM GlcN6P (glucosamine-6-phosphate [7]) |
| --- | --- | --- | --- | --- | --- | --- | --- |
| A14C G44C C67G | 0.00155 ± 0.00052 s⁻¹ | 3.15e-05 ± 1.2e-05 s⁻¹ | 0.000389 ± 0.0001 s⁻¹ | 0.000548 ± 0.00015 s⁻¹ | 0.00139 ± 0.00022 s⁻¹ |  |  |
| A14C U30C | 1.53e-05 ± 3.1e-07 s⁻¹ |  |  |  |  | 151 ± 50 µM | < 1e-05 s⁻¹ |
| A14C G44U | 4.6e-05 ± 8.4e-06 s⁻¹ | < 1e-05 s⁻¹ |  | 3.7e-05 ± 1.4e-05 s⁻¹ | 3.91e-05 ± 9.8e-06 s⁻¹ |  |  |
| A14C A52U | 8.73e-05 ± 5e-06 s⁻¹ |  |  | 5.13e-05 ± 1.4e-05 s⁻¹ | 7.28e-05 ± 1e-05 s⁻¹ | 1920 ± 430 µM |  |
| A14G G43U U46G | 3.09e-05 ± 3.5e-06 s⁻¹ | < 1e-05 s⁻¹ |  |  |  | 1610 ± 590 µM |  |
| A14U A15G G43A | 1.46e-05 ± 6.9e-06 s⁻¹ |  |  |  |  |  |  |
| A14G U56G | 0.0818 ± 0.014 s⁻¹ | 0.00201 ± 0.00033 s⁻¹ | 0.0223 ± 0.0035 s⁻¹ | 0.0673 ± 0.027 s⁻¹ | 0.0704 ± 0.02 s⁻¹ | 1560 ± 320 µM | 0.0087 ± 0.0018 s⁻¹ |
| G13U U56A C67U | 0.000254 ± 9.5e-05 s⁻¹ |  |  | 0.000115 ± 3.1e-05 s⁻¹ | 0.000167 ± 3.2e-05 s⁻¹ |  |  |
| A14U A15G C34G C50A G62U | 1.29e-05 ± 5.5e-06 s⁻¹ |  |  |  |  |  |  |
| A14U A36G G66U | < 1e-05 s⁻¹ |  | < 1e-05 s⁻¹ |  | < 1e-05 s⁻¹ |  |  |
| A14G G37A U54A | 0.00578 ± 0.0027 s⁻¹ | 7.89e-05 ± 1.6e-05 s⁻¹ | 0.000505 ± 0.00013 s⁻¹ | 0.00178 ± 0.00043 s⁻¹ | 0.00406 ± 0.00062 s⁻¹ |  |  |
| A14C C16G | 8.6e-05 ± 5.5e-06 s⁻¹ |  | 4.86e-05 ± 1.2e-05 s⁻¹ | 8.11e-05 ± 8.9e-06 s⁻¹ | 7.9e-05 ± 6.9e-06 s⁻¹ | 438 ± 180 µM |  |
| A14C U31C | 0.00408 ± 0.0011 s⁻¹ | 8.42e-05 ± 1.1e-05 s⁻¹ | 0.000748 ± 9e-05 s⁻¹ | 0.00178 ± 0.00024 s⁻¹ | 0.00399 ± 0.00045 s⁻¹ | 2330 ± 860 µM | 0.000307 ± 4.3e-05 s⁻¹ |
| A14C G66C | 9.53e-05 ± 3.1e-06 s⁻¹ |  |  | 5.12e-05 ± 1.5e-05 s⁻¹ | 7.85e-05 ± 9.8e-06 s⁻¹ | 2140 ± 260 µM |  |
| A14G A15U C68G | 8.39e-05 ± 2.5e-05 s⁻¹ |  | 4.44e-05 ± 1.3e-05 s⁻¹ | 9.14e-05 ± 2.3e-05 s⁻¹ | 7.97e-05 ± 2.3e-05 s⁻¹ |  | 5.83e-05 ± 2.5e-05 s⁻¹ |
| A14U A39C | 0.00121 ± 0.00019 s⁻¹ | 2.83e-05 ± 7.2e-06 s⁻¹ | 0.000203 ± 2.4e-05 s⁻¹ | 0.000537 ± 8.2e-05 s⁻¹ | 0.000981 ± 9.1e-05 s⁻¹ | 2790 ± 700 µM | 7.69e-05 ± 1.2e-05 s⁻¹ |
| A14G U46A | 0.0109 ± 0.0043 s⁻¹ | 0.000166 ± 3.1e-05 s⁻¹ | 0.00157 ± 0.00055 s⁻¹ | 0.0054 ± 0.001 s⁻¹ | 0.00723 ± 0.0012 s⁻¹ |  | 0.000271 ± 7.3e-05 s⁻¹ |

| Variant | kcat (glucosamine-6-phosphate [1]) | self-cleavage kobs at 40 uM GlcN6P (glucosamine-6-phosphate [2]) | self-cleavage kobs at 640 uM GlcN6P (glucosamine-6-phosphate [3]) | self-cleavage kobs at 2500 uM GlcN6P (glucosamine-6-phosphate [4]) | self-cleavage kobs at 10000 uM GlcN6P (glucosamine-6-phosphate [5]) | KM (glucosamine-6-phosphate [6]) | self-cleavage kobs at 160 uM GlcN6P (glucosamine-6-phosphate [7]) |
| --- | --- | --- | --- | --- | --- | --- | --- |
| A14G C67G | 0.00362 ± 0.00046 s⁻¹ | 9.34e-05 ± 8.5e-06 s⁻¹ | 0.00104 ± 0.00011 s⁻¹ | 0.00164 ± 0.00033 s⁻¹ | 0.00339 ± 0.0003 s⁻¹ | 1530 ± 280 µM | 0.000388 ± 6e-05 s⁻¹ |
| A14C G40U | 0.000718 ± 9.8e-05 s⁻¹ |  | 0.000144 ± 2.2e-05 s⁻¹ | 0.000352 ± 6.1e-05 s⁻¹ | 0.000555 ± 5.2e-05 s⁻¹ | 2800 ± 790 µM |  |
| A14G C16U G43A C67G | 0.00284 ± 0.00076 s⁻¹ | 4.98e-05 ± 2.2e-05 s⁻¹ | 0.000459 ± 8.8e-05 s⁻¹ | 0.00221 ± 0.00072 s⁻¹ | 0.00217 ± 0.00045 s⁻¹ | 2840 ± 1100 µM | 0.000207 ± 7.1e-05 s⁻¹ |
| G13U G32A | 0.00326 ± 0.00047 s⁻¹ | 4.41e-05 ± 7.3e-06 s⁻¹ | 0.000465 ± 5e-05 s⁻¹ | 0.00124 ± 0.00013 s⁻¹ | 0.00258 ± 0.00026 s⁻¹ | 3530 ± 710 µM | 0.000153 ± 1.8e-05 s⁻¹ |
| G13U G32C | 0.000465 ± 0.00015 s⁻¹ |  | 7.27e-05 ± 1e-05 s⁻¹ | 0.000121 ± 1.6e-05 s⁻¹ | 0.000328 ± 2.8e-05 s⁻¹ |  |  |
| G13U U56G | 0.000921 ± 0.00016 s⁻¹ |  | 0.000172 ± 2.5e-05 s⁻¹ | 0.000372 ± 6.6e-05 s⁻¹ | 0.000774 ± 9.3e-05 s⁻¹ | 2720 ± 820 µM | 7.12e-05 ± 2e-05 s⁻¹ |
| A14C A39C | 0.000549 ± 0.00015 s⁻¹ |  | 5.77e-05 ± 9.6e-06 s⁻¹ | 0.000254 ± 3.3e-05 s⁻¹ | 0.000346 ± 4.9e-05 s⁻¹ | 4660 ± 2000 µM |  |
| A14C A15U | 0.000353 ± 2.4e-05 s⁻¹ |  | 5.17e-05 ± 6.8e-06 s⁻¹ | 0.000148 ± 1.9e-05 s⁻¹ | 0.000256 ± 3.6e-05 s⁻¹ | 3640 ± 380 µM |  |
| G13U G29U | 0.000324 ± 4.8e-05 s⁻¹ |  | 4.23e-05 ± 9.2e-06 s⁻¹ | 0.000161 ± 2.1e-05 s⁻¹ | 0.000234 ± 2.3e-05 s⁻¹ | 3430 ± 1000 µM |  |
| A14C C68A | 2.76e-05 ± 9.8e-06 s⁻¹ |  |  | 3.95e-05 ± 1.8e-05 s⁻¹ |  |  |  |
| A14C C68U | 0.000506 ± 4e-05 s⁻¹ |  | 0.00015 ± 2.1e-05 s⁻¹ | 0.000305 ± 6.4e-05 s⁻¹ | 0.000447 ± 5e-05 s⁻¹ | 1460 ± 250 µM | 6.97e-05 ± 2.3e-05 s⁻¹ |
| A14G A42U | 0.000931 ± 0.00011 s⁻¹ |  | 0.000152 ± 2.5e-05 s⁻¹ | 0.000357 ± 7e-05 s⁻¹ | 0.000738 ± 9.3e-05 s⁻¹ | 3180 ± 600 µM | 5.25e-05 ± 1.1e-05 s⁻¹ |
| A14C C50A | < 1e-05 s⁻¹ |  |  |  |  |  |  |
| A14C C50U | 1.4e-05 ± 6.4e-06 s⁻¹ |  |  |  |  |  |  |
| G13U G63U | < 1e-05 s⁻¹ | < 1e-05 s⁻¹ |  |  |  |  |  |
| A14G A15U G40U | 0.00322 ± 0.00023 s⁻¹ | 0.00018 ± 3.4e-05 s⁻¹ | 0.00146 ± 0.00029 s⁻¹ | 0.00279 ± 0.0008 s⁻¹ | 0.00298 ± 0.00083 s⁻¹ | 690 ± 78 µM |  |
